Substitutions are numbered along the chain they refer to. Where no end group is shown, it is not given here.
T1: TDP-215 peptide (human)
T1 construct: same ELISA method as for the biotinylated 15-mers
T1 peptide: GDVMDVFI

T2: TDP-221 peptide (human)
T2 construct: 8-mer of human TDP-43; same ELISA method as for the biotinylated 15-mers
T2 peptide: FIPKPFRA

T3: TDP-218 peptide (human)
T3 construct: 8-mer of human TDP-43; same ELISA method as for the biotinylated 15-mers
T3 peptide: MDVFIPKP

T4: TDP-211 peptide (human)
T4 construct: 8-mer of human TDP-43; same ELISA method as for the biotinylated 15-mers
T4 peptide: FSQYGDVM

T5: TDP-223 peptide (human)
T5 construct: 8-mer of human TDP-43; same ELISA method as for the biotinylated 15-mers
T5 peptide: PKPFRAFA

T6: TDP-214 peptide (human)
T6 construct: 8-mer of human TDP-43; same ELISA method as for the biotinylated 15-mers
T6 peptide: YGDVMDVF

T7: TDP-224 peptide (human)
T7 construct: 8-mer of human TDP-43; same ELISA method as for the biotinylated 15-mers
T7 peptide: KPFRAFAF

T8: TDP-219 peptide (human)
T8 construct: 8-mer of human TDP-43; same ELISA method as for the biotinylated 15-mers
T8 peptide: DVFIPKPF

T9: TDP-220 peptide (human)
T9 construct: 8-mer of human TDP-43; same ELISA method as for the biotinylated 15-mers
T9 peptide: VFIPKPFR

T10: TDP-210 peptide (human)
T10 construct: 8-mer of human TDP-43; same ELISA method as for the biotinylated 15-mers
T10 peptide: FFSQYGDV

T11: TDP-213 peptide (human)
T11 construct: 8-mer of human TDP-43; same ELISA method as for the biotinylated 15-mers
T11 peptide: QYGDVMDV

T12: TP-25 peptide (human, also: biotinylated, site not given here)
T12 construct: 15-mer of human TDP-43 from the library spanning aa 199-285; captured on streptavidin plates
T12 peptide: VMDVFIPKPFRAFAF

T13: TP-24 peptide (human, also: biotinylated, site not given here)
T13 construct: 15-mer of human TDP-43 from the library spanning aa 199-285; captured on streptavidin plates
T13 peptide: REFFSQYGDVMDVFI

T14: TDP-1 peptide (human)
T14 construct: Immunogen peptide; conjugated to Luminex beads in the assay; also called TDP-43 aa 212-272
T14 peptide: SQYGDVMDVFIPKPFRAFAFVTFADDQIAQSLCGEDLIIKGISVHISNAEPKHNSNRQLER

B1: ACI-7062-406E3-Ab1 (antibody, IgG2a, V domains shown)
VH: QVTLKESGPAILQPSQTLSLTCSFSGFSLTTYGIGVGWIRQPSGKGLEWLAHIWWNDNKYYNTALKSRLTVSKDTSNNQVFLKIASVDTADTATYYCARVYGNLYYFAYWGQGTTLTVSS
VL: DVLMTQTPLSLPVSLGDRASISCRSSQSIVHRSGNTYLEWYLQKPGQSPKLLIYKVSNRFSGVPDRFSGSGSGTDFTLKISRVEAEDLGVYYCFQGSHVPTFGAGTKLELKR
notes: also called 406E3D5; clone 5
B2: ACI-7062-406E3-Ab2 (antibody, IgG2a, V domains shown)
VH: B1 VH
VL: B1 VL
notes: also called 406E3G10; clone 6
B3: ACI-7062-416A11-Ab1 (antibody, IgG2a, V domains shown)
VH: B1 VH with A10G, P14S, T30S, V71I, T92A, A108G
VL: B1 VL with R32S, H98R
notes: also called 416A11B3; clone 18
B4: ACI-7062-410H3-Ab1 (antibody, IgG1, V domains shown)
VH: DVQLVESGGGLVQPGGSRRLSCAASGFTFSSFGMHWVRQAPEKGLEWVAYIRSGSDIIYYADSVKGRFTISRDNPENTLFLQMTSLRSEDTAMYYCARSGTTVPFDYWGQGTSLTVSS
VL: DIVMTQSPSSLAMSVGQKVTMSCKSSQSLLNSGNQKNYLAWYQQKPGQSPELLLYFASTRASGVPDRFIGSGSGTDFTLTISSVQAEDLADYFCQQHYSIPLTFGAGTKLELKR
notes: also called 410H3B9; clone 7
B5: ACI-7062-412A7-Ab1 (antibody, IgG2b, V domains shown)
VH: B4 VH
VL: B4 VL
notes: also called 412A7B7; clone 9

Target: T1, TDP-215 peptide
Assay: indirect ELISA, 8-mer peptide library, OD 405 nm
Description: (§1) Serum-free supernatants were harvested from stable hybridomas. The supernatants containing antibodies of interest were then screened by an indirect ELISA assay to determine epitopes. Epitopes were mapped using a library of TDP-43 15-mer peptides. Briefly, 96-well streptavidin-coated 96-well ELISA plates were incubated with 5 μg/mL of biotinylated 15-mer peptides spanning the amino acids (aa) 199-285 of human TDP-43 with 9 aa offset and 6 aa overlap. Plates were washed thoroughly with 0.05% Tween-20/PBS and then blocked with 1% bovine serum albumin (BSA) in 0.05% Tween-20/PBS for 1 hour at 37° C. The antibody contained in the hybridoma supernatant was then added at the indicated dilutions, and incubated for 2 hours at 37° C. after which the plates were washed as described previously. An AP-conjugated anti-mouse IgG secondary antibody (Jackson ImmunoResearch Laboratories, United Kingdom) was added at 1/1000 dilution in 0.05% Tween-20/PBS for 1 hour at 37° C. After the final wash, plates were incubated with pNPP (Sigma-Aldrich, Switzerland) an AP substrate solution, and read at 405 nm using an ELISA plate reader (Tecan).
Furthermore, antibodies were tested using an indirect ELISA on a peptide library of 8-mer peptides with 7 aa overlap covering the sequence of human TDP-43 from aa 210 to aa 231, using the same ELISA method as describe previously in this section.

binding result | Binder
binds | B1
binds | B2
binds | B3
binds | B4
binds | B5

Target: T2, TDP-221 peptide
Assay: indirect ELISA, 8-mer peptide library
How it was run: (§2)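 Hybridoma supernatant antibodies were tested by indirect ELISA on streptavidin-captured biotinylated 8-mer peptides with 7 aa overlap spanning human TDP-43 aa 210–231. Antibody binding was 2 h at 37 °C, then AP-conjugated anti-mouse IgG (1/1000, 1 h, 37 °C) was added. Read-out was pNPP absorbance at 405 nm.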

binding result | Binder
no binding | B1
no binding | B2
no binding | B3
no binding | B4
no binding | B5

Target: T3, TDP-218 peptide
Assay: indirect ELISA, 8-mer peptide library
How it was run: as §2

binding result | Binder
no binding | B1
no binding | B2
no binding | B3
no binding | B4
no binding | B5

Target: T4, TDP-211 peptide
Assay: indirect ELISA, 8-mer peptide library
How it was run: as §2

binding result | Binder
no binding | B1
no binding | B2
no binding | B3
no binding | B4
no binding | B5

Target: T5, TDP-223 peptide
Assay: indirect ELISA, 8-mer peptide library
How it was run: as §2

binding result | Binder
no binding | B1
no binding | B2
no binding | B3
no binding | B4
no binding | B5

Target: T6, TDP-214 peptide
Assay: indirect ELISA, 8-mer peptide library
How it was run: as §2

binding result | Binder
no binding | B1
no binding | B2
no binding | B3
no binding | B4
no binding | B5

Target: T7, TDP-224 peptide
Assay: indirect ELISA, 8-mer peptide library
How it was run: as §2

binding result | Binder
no binding | B1
no binding | B2
no binding | B3
no binding | B4
no binding | B5

Target: T8, TDP-219 peptide
Assay: indirect ELISA, 8-mer peptide library
How it was run: as §2

binding result | Binder
no binding | B1
no binding | B2
no binding | B3
no binding | B4
no binding | B5

Target: T9, TDP-220 peptide
Assay: indirect ELISA, 8-mer peptide library
How it was run: as §2

binding result | Binder
no binding | B1
no binding | B2
no binding | B3
no binding | B4
no binding | B5

Target: T10, TDP-210 peptide
Assay: indirect ELISA, 8-mer peptide library
How it was run: as §2

binding result | Binder
no binding | B1
no binding | B2
no binding | B3
no binding | B4
no binding | B5

Target: T11, TDP-213 peptide
Assay: indirect ELISA, 8-mer peptide library
How it was run: as §2

binding result | Binder
no binding | B1
no binding | B2
no binding | B3
no binding | B4
no binding | B5

target: T15, BSA (bovine, UniProt P02769); assay: indirect ELISA, control coat in the 15-mer series, hybridoma supernatant
T15 construct: not specified; also called bovine serum albumin
T15 sequence (P02769 25-607 limits assumed): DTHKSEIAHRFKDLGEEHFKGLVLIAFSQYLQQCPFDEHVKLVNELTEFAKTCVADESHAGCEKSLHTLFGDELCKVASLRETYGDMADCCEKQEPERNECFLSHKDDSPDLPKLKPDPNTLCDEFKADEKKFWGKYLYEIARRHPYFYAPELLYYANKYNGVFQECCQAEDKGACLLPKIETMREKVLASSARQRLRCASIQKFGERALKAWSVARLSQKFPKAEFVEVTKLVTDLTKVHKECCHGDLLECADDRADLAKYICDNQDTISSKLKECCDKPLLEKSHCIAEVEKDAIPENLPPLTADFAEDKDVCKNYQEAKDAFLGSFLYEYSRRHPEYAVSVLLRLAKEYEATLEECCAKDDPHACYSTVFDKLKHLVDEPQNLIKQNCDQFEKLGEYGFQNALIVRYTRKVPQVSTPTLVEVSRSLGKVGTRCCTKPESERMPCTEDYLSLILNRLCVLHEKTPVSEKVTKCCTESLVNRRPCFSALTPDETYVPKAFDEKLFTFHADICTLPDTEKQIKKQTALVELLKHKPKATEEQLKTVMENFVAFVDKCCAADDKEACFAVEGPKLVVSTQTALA

binding result | Binder
no binding | B1
no binding | B2
no binding | B3
no binding | B4
no binding | B5

Target: T12, TP-25 peptide
Assay: indirect ELISA, biotinylated 15-mer peptide on streptavidin plate, hybridoma supernatant
Description: as §1

OD | Binder
1 O.D. (405 nm) | B1
0.9 O.D. (405 nm) | B2
0.9 O.D. (405 nm) | B3
0.8 O.D. (405 nm) | B4
1.4 O.D. (405 nm) | B5

Target: T13, TP-24 peptide
Assay: as above
Description: as §1

OD | Binder
3 O.D. (405 nm) | B1
3.4 O.D. (405 nm) | B2
2.9 O.D. (405 nm) | B3
3.8 O.D. (405 nm) | B4
4 O.D. (405 nm) | B5

Target: T14, TDP-1 peptide
Assay: Luminex bead assay, antibody serial dilution, TDP-1 peptide beads

EC50 [nM] | Binder
< 0.01 | B1
< 0.01 | B2
< 0.01 | B3
< 0.01 | B4
< 0.01 | B5
